The source of these data is patent publication US20120202233.

The data set concerns the target myc-CRAF (wild type).

B1: FLAG-KSR (wild-type KSR1) (protein)
chain: MDRAALRAAAMGEKKEGGGGGAAADGGAGAAVSRALQQCGQLQKLIDISIGSLRGLRTKCSVSNDLTQQEIRTLEAKLVKYICKQQQSKLSVTPSDRTAELNSYPRFSDWLYIFNVRPEVVQEIPQELTLDALLEMDEAKAKEMLRRWGASTEECSRLQQALTCLRKVTGLGGEHKMDSGWSSTDARDSSLGPPMDMLSSLGRAGASTQGPRSISVSALPASDSPVPGLSEGLSDSCIPLHTSGRLTPRALHSFITPPTTPQLRRHAKLKPPRTPPPPSRKVFQLLPSFPTLTRSKSHESQLGNRIDDVTPMKFELPHGSPQLVRRDIGLSVTHRFSTKSWLSQVCNVCQKSMIFGVKCKHCRLKCHNKCTKEAPACRITFLPLARLRRTESVPSDINNPVDRAAEPHFGTLPKALTKKEHPPAMNLDSSSNPSSTTSSTPSSPAPFLTSSNPSSATTPPNPSPGQRDSRFSFPDISACSQAAPLSSTADSTRLDDQPKTDVLGVHEAEAEEPEAGKSEAEDDEEDEVDDLPSSRRPWRGPISRKASQTSVYLQEWDIPFEQVELGEPIGQGRWGRVHRGRWHGEVAIRLLEMDGHNQDHLKLFKKEVMNYRQTRHENVVLFMGACMNPPHLAIITSFCKGRTLHSFVRDPKTSLDINKTRQIAQEIIKGMGYLHAKGIVHKDLKSKNVFYDNGKVVITDFGLFGISGVVREERRENQLKLSHDWLCYLAPEIVREMIPGRDEDQLPFSKAADVYAFGTVWYELQARDWPFKHQPAEALIWQIGSGEGVRRVLASVSLGKEVGEILSACWAFDLQERPSFSLLMDMLERLPKLNRRLSHPGHFWKSADINSSKVMPRFERFGLGTLESGNPKM
Take B1: the “in vitro kinase activity towards purified MEK in KSR immunoprecipitates, phospho-MEK antibody (FIG. 1G)” value is “Treatment of cells with PLX4720 induced kinase activity towards MEK in the KSR immunoprecipitates and only occurred when KSR and CRAF were co-expressed together”.
